Molecular target: T1, Biotinylated C3b (human, UniProt P01024 23-667; P01024 749-1663, biotin (Maleimide-PEG2-Biotin))
T1 construct: complement C3, human, beta chain; complement C3, human, alpha' chain of C3b; also called biotin-C3b; immobilized C3b; source: made from plasma C3 by trypsin cleavage in the presence of Maleimide-PEG2-Biotin, purified by cation exchange
Test: BLI; biotinylated C3b on streptavidin sensors; FPht variants at 100 to 1.56 μg/mL, 60 s steps; 30°C; 20 mM MES pH 6.0, 100 mM NaCl, 0.05% Tween, 1 mg/mL BSA; steady state 1:1 fit (for WT also kinetic analysis)
Details: both partners purified

T1 sequence (P01024 23-667, chain 1 of 2): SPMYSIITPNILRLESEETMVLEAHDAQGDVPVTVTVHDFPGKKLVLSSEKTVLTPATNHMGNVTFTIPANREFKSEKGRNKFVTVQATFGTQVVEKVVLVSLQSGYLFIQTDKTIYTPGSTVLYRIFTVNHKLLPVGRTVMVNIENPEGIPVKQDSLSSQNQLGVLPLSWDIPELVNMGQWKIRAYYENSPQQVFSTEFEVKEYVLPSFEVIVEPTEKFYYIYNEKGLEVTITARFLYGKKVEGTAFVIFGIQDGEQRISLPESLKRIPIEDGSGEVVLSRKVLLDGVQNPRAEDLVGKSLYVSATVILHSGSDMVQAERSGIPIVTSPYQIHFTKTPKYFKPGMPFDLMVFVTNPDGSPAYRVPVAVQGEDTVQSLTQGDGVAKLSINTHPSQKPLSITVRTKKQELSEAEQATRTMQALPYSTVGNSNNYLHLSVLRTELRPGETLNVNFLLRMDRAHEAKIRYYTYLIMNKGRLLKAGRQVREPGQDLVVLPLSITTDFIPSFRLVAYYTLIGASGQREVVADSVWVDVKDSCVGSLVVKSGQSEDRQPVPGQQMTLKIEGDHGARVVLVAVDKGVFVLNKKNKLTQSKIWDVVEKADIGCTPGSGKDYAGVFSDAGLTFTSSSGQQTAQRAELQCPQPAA
T1 sequence (P01024 749-1663, chain 2 of 2): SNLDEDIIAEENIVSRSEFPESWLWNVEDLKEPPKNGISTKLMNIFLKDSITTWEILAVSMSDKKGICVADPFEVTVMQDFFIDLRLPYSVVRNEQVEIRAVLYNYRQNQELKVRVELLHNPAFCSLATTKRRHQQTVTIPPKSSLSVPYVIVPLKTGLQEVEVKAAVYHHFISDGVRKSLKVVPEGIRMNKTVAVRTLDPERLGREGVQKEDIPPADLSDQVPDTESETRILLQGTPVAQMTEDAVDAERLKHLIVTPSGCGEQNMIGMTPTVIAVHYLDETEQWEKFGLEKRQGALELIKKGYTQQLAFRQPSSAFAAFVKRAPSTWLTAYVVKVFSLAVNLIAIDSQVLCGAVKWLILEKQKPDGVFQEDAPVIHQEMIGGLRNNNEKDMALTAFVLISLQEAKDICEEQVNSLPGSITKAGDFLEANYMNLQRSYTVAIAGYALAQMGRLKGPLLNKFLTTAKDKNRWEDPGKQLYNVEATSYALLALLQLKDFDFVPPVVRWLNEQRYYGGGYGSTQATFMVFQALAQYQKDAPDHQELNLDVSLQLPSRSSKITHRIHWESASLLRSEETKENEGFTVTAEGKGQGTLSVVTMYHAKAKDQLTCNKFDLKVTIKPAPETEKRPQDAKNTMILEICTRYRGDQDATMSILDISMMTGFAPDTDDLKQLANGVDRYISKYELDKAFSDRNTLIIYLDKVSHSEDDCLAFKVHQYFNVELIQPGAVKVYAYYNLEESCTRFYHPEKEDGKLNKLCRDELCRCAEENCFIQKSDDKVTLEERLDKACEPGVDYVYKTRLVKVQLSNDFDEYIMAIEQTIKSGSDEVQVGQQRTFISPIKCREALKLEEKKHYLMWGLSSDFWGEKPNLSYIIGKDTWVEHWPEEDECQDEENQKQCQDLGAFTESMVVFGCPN

B1: FPht R353A (complex)
chain 1: DPVLCFTQYEESSGKCKGLLGGGVSVEDCCLNTAFAYQKRSGGLCQPCRSPRWSLWSTWAPCSVTCSEGSQLRYRRCVGWNGQCSGKVAPGTLEWQLQACEDQQCCPEMGGWSGWGPWEPCSVTCSKGTRTRRRACNHPAPKCGGHCPGQAQESEACDTQQVCPTHGAWATWGPWTPCSASCHGGPHEPKETRSRKCSAPEPSQKPPGKPCPGLAYEQRRCTGLPPCP
chain 2: VAGGWGPWGPVSPCPVTCGLGQTMEQRTCNHPVPQHGGPFCAGDATRTHICNTAVPCPVDGEWDSWGEWSPCIRRNMKSISCQEIPGQQSRGRTCRGAKFDGHRCAGQQQDIRHCYSIQHCPLKGSWSEWSTWGLCMPPCGPNPTRARQRLCTPLLPKYPPTVSMVEGQGEKNVTFWGRPLPRCEELQGQKLVVEEKRPCLHVPACKDPEEEEL
- Kd: 1000 nM

— PMC6713926, “Structural Basis for Properdin Oligomerization and Convertase Stimulation in the Human Complement System” (Frontiers in Immunology, 2019)
